Measurements reported in PMC3919171.

What was measured:
[1] = molecular target: collagen VI monomer with the murine collagen VI α3 chain (N9-C5) carrying the R1061Q mutation (mouse | human (endogenous in SaOS-2)); experiment: non-reducing agarose/polyacrylamide composite gel electrophoresis with immunoblot; culture medium (4-14 days) and cell extracts of transfected SaOS-2 cells, SDS loading buffer with 2 M urea, non-reducing, 0.5% agarose/2.4% polyacrylamide; detected with an antibody against the α3 C terminus; sizes from purified collagen VI as a standard; monomers to tetramers
[2] = molecular target: collagen VI monomer with the wild-type murine collagen VI α3 chain (N9-C5) (mouse | human (endogenous in SaOS-2)) (UniProt P12109); experiment: as above

With “collagen VI monomer with the murine collagen VI α3 chain (N9-C5) carrying the R1061Q mutation (from UniProt P12109 20-1028; P12110 21-1019) (complex)” the stoichiometry N [1] was 4.

For “collagen VI monomer with the wild-type murine collagen VI α3 chain (N9-C5) (from UniProt P12109 20-1028; P12110 21-1019) (complex)”, the stoichiometry N [2] was 4.
